Test results published in the DeepSol protein solubility set.

test: soluble on expression in E. coli; label from the status in PepcDB or PDB records

Sequence	soluble on expression in E. coli
MWPPQGVPMSTPGSSAGHMPLGAGAASFPGQMNGPPQHPGMQYSGQMQQLPYGQMEGNHAMYDQRIMGQRAAGRPGMMPDYPQMPMGQTPGNTMMRMPVQYPSGPSQMAGHPHMQQMQYGHMMRAPPVSVYGQMNNAQQYAVTAHPNPVPQPYYHPEVRQLYETTAGYIVDRELLAEGHVTPGSNGVEAMLTHDASDFLKVSPQTDVLFSIWPVTKSNDPNIQYEVYINQKSVMNSHMQVKSIFIKDFLISGMNSIHIVYNGPQQMYKYACEFVTRKSVIELRKILIQKRVIEGQQLATQQKQQYMQMANKRQAGFYPVSLNCVLSKKRMFTPAKHHECKKIFDLAQLINANKGMTRYFCQTCNAYFKFEDITADYFLLNFLQSIPAGVNDLIVEKTGVVRSGDVEDVKPKRGKKKTDNDANGNGIKRIKSEIIVKQETFTDMHGRNVPFSPMPMPGSVPPDWTRLQSPSFSMQSPNKVQLGPATPATPGMVFQNPASAGSMLNMSSPRQTMIPGMHPMMPPHDVTMRSGSAPYTPESVKNDKNDELLMHIEGLYVCDVPILENEQLTVRYMDGTKDLCFEDSMVYEFAESPKHQQQIDGPPQTLMAPGSTASSSGSTFTPPFDDIHLGNRPSH	not soluble
MNETPTRVYAEIDLDAVRANVRALRARAPRSALMAVVKSNAYGHGAVPCARAAQEAGAAWLGTATPEEALELRAAGIQGRIMCWLWTPGGPWREAIETDIDVSVSGMWALDEVRAAARAAGRTARIQLKADTGLGRNGCQPADWAELVGAAVAAQAEGTVQVTGVWSHFACADEPGHPSIRLQLDAFRDMLAYAEKEGVDPEVRHIANSPATLTLPETHFDLVRTGLAVYGVSPSPELGTPAQLGLRPAMTLRASLALVKTVPAGHGVSYGHHYVTESETHLALVPAGYADGIPRNASGRGPVLVAGKIRRAAGRIAMDQFVVDLGEDLAEAGDEAVILGDAERGEPTAEDWAQAAHTIAYEIVTRIGGRVPRVYLGGLEHHHHHH	soluble
MGSDKIHHHHHHMNFQIVINNIQHIGYAELDVDLNASGIICIVGKNGVGKTTLIKAILNLKSADTFSRTASPGIFKANSSMRCTYGENSYEFSFDSDINDLNSRSPIPEELKSVIDVELPMPFGQRFNNYQNIMSADMDIRTALILGEYEVPVELISFLSDIYKTNKFNGLVEVSAKGGSYYCIPLDDDRYVREDHLSSGEFFLISLYRKIKGRSKFIVIDEIDISLDAAAQAHLIGWLRRFCTTEQVKVVFTTHSLALMRTLKDGELFYMEESEGKVSVIPSSYNYIKSVLFGFKGWDRYILTEDAMLKSLLEYVLANYCSGLFFSYQIIHVGGGSNVVDLMRQNSTEGFFSTPENVISVLDGDQAEYRYARRPNVYCIPFLSVEKAIFAEYKAGRFLPELAPDPRFDTPKNFCSAIGRDRHATEADIIKYLCDSYPTEVRRFAQTLSDFLS	not soluble
MEMNVAAPAAAVAGAAAPQPGQNQTGSSYTMASLYVGDLHPDVNESILFEKFSAAGPVLSIRVCRDNATRLSLGYAYVNFQQPADAERAMDTMNFEALHGKPMRIMWSQRDPAMRRSGAGNIFIKNLDKVIDNKSIYDTFSLFGNILSCKVAIDEDGFSKGYGFVHFETEEAAQNAIQKVNGMLLAGKKVFVGKFQPRAQRNRELGETAKQFTNVYVKNFGDHYNKETLEKLFAKFGNITSCEVMTVEGKSKGFGFVAFANPEEAETAVQALHDSTIEGTDLKLHVCRAQKKSERHAELKKKHEQHKAERMQKYQGVNLYVKNLDETVDDDGLKKQFESYGNITSAKVMTDENGRSKGFGFVCFEKPEEATSAVTEMNSKMVCSKPLYVAIAQRKEDRRAQLASQYMQRLASMRMHGNVPGAAMYNPTQPGPGYYVANPMQQQRNFAGGQQMVRPGGRWGMQNQYPVQNQYMMAQGPGVYQNRMGRPQNQQGGPRGPPQQYNQVAQGGVRMQGPPRTQNPGVQQQNVPRPPQQQQQQRPAPTGPKAPPQPYQAYQQRPQGIVIGGQEPLTSAMLAAAAPQEQKQLLGERIYALIEKLYPGHKDAGKITGMMLEIDNSELIMMLQDSELFRSKVDEAASVLVSAQKQ	not soluble
MNIVIAAVGGQGAVLTSKILGTLAQNLGKDVKVSEVHGMSQRGGSVVAYVKFGDKVYSPVVEKGTADIVLAFEMLEGARYVDYLKENGKLVVNTQRIDPMPVITGDMEYPADLGEKLEELNIGYIPVDALSLAKNAGTIKAVNVALIGVLAQNSNIKKEEWIKAIKDTVPEKFLELNLKAFELGYNLE	soluble
MGSDKIHHHHHHMEQAATQRLATGIPGLDEICGGGLVPRYAYLVRGGPGTGKTTLGLHFLAAGAANGETTLFISLEETESKIRWNAAQTGINLNQVHILDLSPSSDFFANTQIYDIFSPAEVEREPITRQIVETVQRLQPTRVFLDSITQFRYLTPDTFQFRKQVISFLRFLAEQRTTVVFSAENSAAFPDDDLQYIADGIISLELTNTGRYLTVSKMRGSSFVSGRHAMRLTTQGLQVFPRIIPTPLVAGHAFTLIPSGVPELDELLNGGVERGTITLITGPSGVGKTTLGFQFMKEAASRGERSMVFSFEEEIEIMQQRCEAVNIPVRAMQKQQLLRIEKIEPLQYNPAEFAQHVRYFIEQEQIKVVMIDSVTGYRLCMHGEDLISQLHALSKYLQSRGVTVFLIMDTTDIVGDFKVTEIGASYLGDNIIFLRFLEIEGELRKAIGVLKKRLGDFEKTLREFAISRYGIKVGKPLTNLRGILSGMPTWVDKA	not soluble
APTMTEFVGTAGGDTVGLVIANVDSLLHKHLGLDNTCRSIGIISARVGAPAQMMAADEAVKGTNTEVATIELPRDTKGGAGHGIFIVLKAADVSDARRAVEIALKQTDKYLGNVYLCDAGHLEVQYTARASLIFEKAFGAPSGQAFGIMHAAPAGVGMIVADTALKTADVKLITYGSPTNGVLSYTNEILITISGDSGAVLQSLTAARKAGLSILRSMGQDPVSMSKPTF	soluble
MGSDKIHHHHHHMHTELNHVMPWRIEDIDLTRIDRQKAVANEDLLLLLCASSFIESGSDLYTANLSTFFNGDPEVSAWLNQEWEPEELQHGRALKTYIAYVWPEFDWDTAFRNFMEEYSLTCSVEDFEKTRALEMVARCVVETGTATLYRAIGECSDEPVLKQITDNIRTDEVRHYKHFFKYFKKYNKIEGNGRLAVLGALMRRVMEIKNEDSEIALRHVFAVRYPERVHDSAYNRERAARINALVRRNLSADMCVKMLLKPLDLPARIQPGVHYPLAKITQHVFFR	not soluble
SQNNEIIKPAKYFSELEKSILLALVEKYKYVLECKKSDARTIALKQRTWQALAHEYNSQPSVSLRDFKQLKKCWENIKARTKKIMAHERREKVKRSVSPLLSTHVLGKEKIASMLPEQLYFLQSPPEEEPEYHPDASAQESFAVSNRELCDDEKEFIHFPVCEGTSQPEPSCSAVRITANKNYRSKTSQEGALKKMHEEEHHQQMSILQLQLIQMNEVHVAKIQQIERECEMAEEEHRIKMEVLNKKKMYWERKLQTFTKEWPVSSFNRPFPNSP	soluble
QMLVNKARLANLNVSLEEKVMQRTVVLSEANHKLQQTVRQYEQSQQELRQTQQELTQAAKLALLGELSASINHEINQPLAALRTYTENSQRLLSMERYPMVADNLNKMLSLNETIAEVIARLKVFTRKTSHEPHNEVSILHDAVHNATSILSNKLIKQGVTLKVPTIDHEVRLAIHSVE	not soluble
MTRQSQDGDATSTPAERAAAARAAAAEAARIAAEAAAAAEEAEKEARDAEAAENRAPAGVAASSGAAADIAAGYSSEGAALELGTVVLDGVVDSAARVRIPLATVNRHGLVAGATGTGKTKTLQGIAEQLSAAGVPVVMADMKGDLSGLSQPGEAGDKITTRASETGDGEWRPAASPVEFLSLGTEGLGIPVRATITAFGPILLAKVLGLNETQESTLGLIFHWADVQGLALLDLLDLRSVIAHLTSDEGKADLKGIGGVSPATAGVILRALVNLEADGGDTFFGEPELETEDLLRVIDGKGVITLFELGAQAARPALFTTFLMWVLADLFQTLPEEGDLDKPKLVFIFDEAHLLFADASKAFLQQVEQTVKLIRSKGVGVFFCTQLPTDVPNGVLSQLGARIQHALRAFTPDDQKALTKTVRTYPTTENYDLEKALTSLGIGEAIVTVLSERGAPTPVAWTRIRPPRSLMDTIGTDAITAAASSSPLSAKYGQTVDRESAYEKLTAKVAGAPAAEPGLDLPPLPDLPTPPPAQPEGPNMAEQILGNSAVKSFLRSAASAAGREISRSIFGTGKRRRR	not soluble
MGSDKIHHHHHHMAHEMIGTQIVTERLVALLESGTEKVLLIDSRPFVEYNTSHILEAININCSKLMKRRLQQDKVLITELIQHSAKHKVDIDCSQKVVVYDQSSQDVASLSSDCFLTVLLGKLEKSFNSVHLLAGGFAEFSRCFPGLCEGKSTLVPTCISQPCLPVANIGPTRILPNLYLGCQRDVLNKELMQQNGIGYVLNASNTCPKPDFIPESHFLRVPVNDSFCEKILPWLDKSVDFIEKAKASNGCVLVHCLAGISRSATIAIAYIMKRMDMSLDEAYRFVKEKRPTISPNFNFLGQLLDYEKKIKNQTGASGPKSKLKLLHLEKPNEPVPAVSEGGQKSETPLSPPCADSATSEAAGQRPVHPASVPSVPSVQPSLLEDSPLVQALSGLHLSADRLEDSNKLKRSFSLDIKSVSYSASMAASLHGFSSSEDALEYYKPSTTLDGTNKLCQFSPVQELSEQTPETSPDKEEASIPKKLQTARPSDSQSKRLHSVRTSSSGTAQRSLLSPLLRSGSVEDNYHTSFLFGLSTSQQHLTKSAGLGLKGWHSDILAPQTSTPSLTSSWYFATESSHFYSASAIYGGSASYSAYSCSQLPTCGDQVYSVRRRQKPSDRADSRRSWHEESPFEKQFKRRSCQMEFGESIMSENRSREELGKVGSQSSFSGSMEIIEVS	not soluble
NADAQTKLQIIDLKTRLRLALPNLPGGDLRGVNFSADASQLVFYINSDTSPSNLYVHKLGSTGVKRLTNTGNPNILEDNLVEGEVVRFKSFDGLDIPGILYKPKQAEFNKVPALVFIHGGPGGQSRKGYSALVQHLVNNGYAIFKVNNRGSSGYGKTFFHLDDKKHGDHDLKDVVYNKYYLQSLDWVDKDRIGVIGGSYGGYLTMAAMAFTDEFQAGVNIFGVTNWVRTLESIPPYWEAFRKSLYDELGDPNTDKERLHNISPVFFGHQIKKPVLVVQGKNDPRVLKIESDEMVDSIRSGGTYVDYLVFDDEGHGFSKKANRIEASNKYLNFFKTQL	not soluble
MKIDISDILKHSGASLRLDFSESIKINDFIAEDFDFAKPVTFKGTLVNAGGIIKLDGELWADYRAKCSRCLKDIESKMHIDVKENFVEEGSNKTDEEYYTYHGKFLELEKVMIDNIILNLPAKQVCDEACKGYCPKCGADLNNDECKCVNEDIDPRLEVFKNFFTDN	soluble
MALSKIDTEIEQVDQEKYLRQATSYYQPLEKPLKYGPEVNSLSDLVAALHREFESNYVNIEMVNHLMLSYKSNPREWRKYAKFDRYTYTRNLVDAGNGKFNLLILCWGEGHGSSVHDHADSHCFMKMLKGDLREKRYEYPNRSARDNGRSHHPDGEIDSRELVEIGETPIAVNDVAYINDNLGLHRVENPSHSDTSVSLHLYCPPFDTCSVFQDNLKKTTAKVTFWSKYGVRTKQNEQLEHHHHHH	not soluble
MSLSDDPMASIKLLNLERENSAIAQYQSNIANLKTTLSSQETHLDSVNESLKSMRDIVLWGANGSLTDQDRSGMITELKSYRDSIESSFNAQDEEGHFLFSGTKTDTAALNKSSGAYVVEGNSDVRVVTVAKGVTMDSNMTAQEILDIGGGKNVLNQIDALIAEFEKPSPNFQAEVDASLNAIDDTMANVLGAMTEIGGRHNNLDLMDGAHSENKLFVDKVSGDLSALDYGEASVRLSNYMAALQATQASYVKINDLSLFDREGHHHHHH	soluble
GRYEIRFSGAGGQGLILAGVIMAEAASIYDGKQAVQSQSYGPEARGGASKSEVIISDGPVDYPKATQCDALLALTQEACDKYSADLKEGGVLLVDSDLVTKLPPGNYQTTAFNIINTAKNDVGREIVANIVALGAMVALTGVVSKEAAEKAVLSRVPEAFVELNRKAFQMGFEKALAAKK	soluble
MLNSNNHQTEWKWPRLIQIMEIGNSAMKNTMSKTLYMSYNFIARTSGKTYHAPVLVVDCSVNEGWLWMRICHNCLGCLCTGYWAAQRTFATTTGLRLVWL	soluble
